Here are results for three molecules from publication PMC6919569.

For data set [1], the target named is T1, NF-kB p65 (RelA), recombinant (Homo sapiens, UniProt Q04206 1-551). Kind of data set: competition EMSA.
Data set [2] concerns the target T1, NF-kB p65 (RelA), recombinant. Description: EMSA, supershift. (In EMSA bound probe runs differently from free probe, usually more slowly.)

T1 sequence (Q04206 whole entry): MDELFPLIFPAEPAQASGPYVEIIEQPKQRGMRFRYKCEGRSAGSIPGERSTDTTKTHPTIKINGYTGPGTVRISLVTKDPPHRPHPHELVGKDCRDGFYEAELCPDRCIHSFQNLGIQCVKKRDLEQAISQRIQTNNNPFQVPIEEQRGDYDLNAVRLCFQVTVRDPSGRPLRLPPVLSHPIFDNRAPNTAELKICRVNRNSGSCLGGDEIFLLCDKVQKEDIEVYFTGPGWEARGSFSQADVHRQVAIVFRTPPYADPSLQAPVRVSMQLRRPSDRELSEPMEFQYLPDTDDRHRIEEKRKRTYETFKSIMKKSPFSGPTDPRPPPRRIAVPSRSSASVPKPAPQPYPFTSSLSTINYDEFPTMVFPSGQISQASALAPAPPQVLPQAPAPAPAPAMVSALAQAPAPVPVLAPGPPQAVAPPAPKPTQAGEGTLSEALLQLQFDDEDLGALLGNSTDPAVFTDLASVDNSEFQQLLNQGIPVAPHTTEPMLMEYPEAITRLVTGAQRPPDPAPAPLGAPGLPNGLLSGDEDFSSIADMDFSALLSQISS

B1: Mutant 2 (… to CCCTTAAGGG) (dsDNA)
DNA 1: CTGTGCTCCCTTAAGGGTTAGCTCC
DNA 2: GGAGCTAACCCTTAAGGGAGCACAG
Regarding B1, in data set [1], the binding result was “no binding”.

B2: Mutant 1 (NF-kB site deleted) (dsDNA)
DNA 1: CTGTGCTTTAGCTCC
DNA 2: GGAGCTAAAGCACAG
As to B2, the binding result in data set [1] is given as “no binding”.

B3: PLCB2 -1652/-1628 WT NF-kB probe (dsDNA)
DNA 1: CTGTGCTGGGAATTCCCTTAGCTCC
DNA 2: GGAGCTAAGGGAATTCCCAGCACAG
For the molecule B3, the binding result in data set [2] is on record as “binds”.
